Here are results for five molecules from patent publication US20260209333A1 (VETMAB BIOSCIENCES, published 2026).

One may read the Kd as the constant that tells how readily two partners part at equilibrium. One may read the koff as the first-order rate constant of dissociation. One may read the kon as the second-order rate constant of association.

Experiment [1] deals with T1, Recombinant canine IL23 (single chain p40 + linker + p19, Avitag, polyHis tag) (canine).
T1 construct: Single chain p40-linker-p19 with a tag for site specific biotinylation and a polyHis tag, expressed in CHO cells as a monomeric protein; also called canine IL23 polypeptide
T1 chain: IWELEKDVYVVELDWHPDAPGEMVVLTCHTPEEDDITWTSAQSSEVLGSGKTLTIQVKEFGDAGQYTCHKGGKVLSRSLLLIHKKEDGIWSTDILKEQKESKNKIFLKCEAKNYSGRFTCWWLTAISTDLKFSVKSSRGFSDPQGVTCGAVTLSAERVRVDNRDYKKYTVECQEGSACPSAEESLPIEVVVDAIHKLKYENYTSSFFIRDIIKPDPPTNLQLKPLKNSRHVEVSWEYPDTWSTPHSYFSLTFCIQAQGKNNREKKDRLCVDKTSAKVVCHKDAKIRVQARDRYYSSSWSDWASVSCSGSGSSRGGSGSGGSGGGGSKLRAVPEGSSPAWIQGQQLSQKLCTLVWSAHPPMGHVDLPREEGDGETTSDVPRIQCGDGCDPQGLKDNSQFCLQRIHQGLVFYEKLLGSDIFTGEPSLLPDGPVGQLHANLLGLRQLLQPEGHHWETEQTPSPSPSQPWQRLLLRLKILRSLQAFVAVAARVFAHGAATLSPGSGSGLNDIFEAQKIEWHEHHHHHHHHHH
Description: SPR, Biacore 8K, antibody captured on Protein A chip, antigen as analyte, 25 C. The protocol: (§1) This study was performed to measure the binding affinity of anti-IL23 antibodies to IL23 and p40 antigens using a Biacore 8K.
(§2) All the data were processed using the Biacore 8K Evaluation software version 3.0. Flow cell 1 and blank injection of buffer in each cycle were used as double reference for Response Units subtraction.
(SPR reads the build-up and loss of mass on a sensor chip optically.)

The target in experiment [2] is T2, Canine p40 polypeptide (canine, UniProt Q28268 23-329).
T2 sequence (looked up): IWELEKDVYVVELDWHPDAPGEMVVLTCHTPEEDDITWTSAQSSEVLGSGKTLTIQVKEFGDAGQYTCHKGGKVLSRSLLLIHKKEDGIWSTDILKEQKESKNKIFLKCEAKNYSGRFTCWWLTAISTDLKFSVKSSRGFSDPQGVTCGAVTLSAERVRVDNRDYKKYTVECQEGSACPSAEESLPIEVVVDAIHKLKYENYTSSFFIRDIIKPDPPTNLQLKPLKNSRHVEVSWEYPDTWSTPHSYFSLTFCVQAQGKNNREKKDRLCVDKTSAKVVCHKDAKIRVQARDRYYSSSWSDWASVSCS
The experiment is described as above. The protocol: as §1, §2

Experiment [3] deals with T1, Recombinant canine IL23 (single chain …). Nature of the experiment: Biacore affinity assay ('Active' = specific binding to canine IL23).
The target of experiment [4] is T3, Canine TNF-alpha (Sino Biologicals) (canine, UniProt P51742 77-233).
T3 construct: Bought protein; also called Canine TNFα
Description: SPR, Biacore 8K, antibody captured on Protein A chip, antigen as analyte, 25 C. The protocol:
This study was performed to measure the binding affinity of antibodies to antigens using a Biacore 8K.
as §2

Residue numbers refer to the chain shown, from its start.

T3 sequence (P51742 77-233 limits assumed): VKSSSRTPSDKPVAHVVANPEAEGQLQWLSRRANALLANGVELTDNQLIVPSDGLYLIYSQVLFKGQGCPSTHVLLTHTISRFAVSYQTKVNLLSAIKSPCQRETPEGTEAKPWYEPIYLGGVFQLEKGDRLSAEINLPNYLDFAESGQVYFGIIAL

B1: Chimeric anti-IL23 antibody (clone C340 VL and VH domains fused to canine kappa light chain constant region and canine IgG-B constant region) (antibody, V domains shown)
VH: EVQLVQSGAEVKKPGESLKISCKGSGYSFTTYWLGWVRQMPGKGLDWIGIMSPVDSDIRYSPSFQGQVTMSVDKSITTAYLQWNSLKASDTAMYYCARRRPGQGYFDFWGQGTLVTVSS
VL: DIQMTQSPSSLSASVGDRVTITCRASQGISSWLAWYQQKPEKAPKSLIYAASSLQSGVPSRFSGSGSGTDFTLTISSLQPEDFATYYCQQYNIYPYTFGQGTKLEIKR
notes: also called Anti-IL23-VH-VL; Anti-IL23 (full length IgG form)
For B1, in experiment [1], the dissociation constant (Kd) is 0.58 nM, the koff stood at 0.00338 s⁻¹ and the kon worked out at 5.83e+06 M⁻¹ s⁻¹. In experiment [2], binding was put at a Kd of 1.02 nM, the koff was found to be 0.00478 s⁻¹ and the kon was 4.68e+06 M⁻¹ s⁻¹.

B2: Anti-IL23 C340 VL / caninized VH variant V1 (antibody, V domains shown)
VH: EVQLVQSGAEVKKPGASVKVSCKGSGYSFTTYWLGWVRQAPGAGLDWMGIMSPVDSDIRYAGKFQGQVTMSVDTSTSTAYMELSSLRAGDIAVYYCARRRPGQGYFDFWGQGTLVTVSS
VL: DIQMTQSPSSLSASVGDRVTITCRASQGISSWLAWYQQKPEKAPKSLIYAASSLQSGVPSRFSGSGSGTDFTLTISSLQPEDFATYYCQQYNIYPYTFGQGTKLEIK
notes: also called VL C340 + VH V1
For B2, the binding result in experiment [3] is “binds”.

B3: Caninized anti-IL23 with VL domain V2.1 and VH domain V1.1 (antibody, V domains shown)
VH: B2 VH with A61S, G62P, K63S
VL: DIVMTQTPLSLSVSPGEPASISCRASQGISSWLAWYQQKAEKAPKSLIYAASSLQSGVPDRFSGSGSGTDFTLRIGRVEAEDAGIYYCQQYNIYPYTFGQGTRLEVR
notes: also called VL V2.1 + VH V1.1; exemplary caninized anti-IL23
With B3, in experiment [3], the binding result is given as “binds”.

B4: Anti-IL23 caninized VL variant V2 / caninized VH variant V6 (antibody, human IgG1, V domains shown)
VH: EVQLVESGGDLVKPGGSLRLSCKGSGYSFTTYWLGWVRQAPGKGLQWIGIMSPVDSDIRYADAVKGRFTVSRDNAKRTLYLQMNSLRAEDTAIYYCARRRPGQGYFDFWGQGTLVTVSS
VL: B3 VL with Q37L, E41G, K42Q, A43S, K45R, S46L, I48P
notes: also called VL V2 + VH V6
Regarding B4, the binding result in experiment [3] is “binds”.

B5: Caninized anti-TNFα D2E7 antibody (caninized VL + canine kappa constant region; caninized VH + canine IgG-B constant region) (antibody, V domains shown)
VH: EVQLVESGGDLVKPAESLRLSCVASGFTFDDYAMHWVRQAPGKGLEWVSAITWNSGHIDYADSVEGRFTISRDNARNTLYLQMNSLRAEDTAVYYCAKVSYLSTASSLDYWGQGTLVTVSS
VL: DIVMTQTPLSLSVSPGEPASISCRASQGIRNYLAWYQQKPGKAPKLLIYAASTLQSGVPDRFSGSGSGTDFTLRIGRVEAEDAGIYYCQRYNRAPYTFGQGTRLEVRR
notes: Expressed in Expi293F cells, 150 kDa, captured on a Protein A chip; also called Caninized Anti-TNF-VH-VL
On to B5, for which, in experiment [4], binding was put at a Kd of 3.91 nM, the koff came out at 0.000818 s⁻¹ and the kon worked out at 209000 M⁻¹ s⁻¹.
